Laboratory results reported in patent US20240270821A1, “GIP/GLP1/GCG TRI-RECEPTOR AGONISTS AND USES THEREOF” (priority 2023, published 2024).

T1: human GIP receptor (human) (UniProt P48546)
T1 sequence (looked up): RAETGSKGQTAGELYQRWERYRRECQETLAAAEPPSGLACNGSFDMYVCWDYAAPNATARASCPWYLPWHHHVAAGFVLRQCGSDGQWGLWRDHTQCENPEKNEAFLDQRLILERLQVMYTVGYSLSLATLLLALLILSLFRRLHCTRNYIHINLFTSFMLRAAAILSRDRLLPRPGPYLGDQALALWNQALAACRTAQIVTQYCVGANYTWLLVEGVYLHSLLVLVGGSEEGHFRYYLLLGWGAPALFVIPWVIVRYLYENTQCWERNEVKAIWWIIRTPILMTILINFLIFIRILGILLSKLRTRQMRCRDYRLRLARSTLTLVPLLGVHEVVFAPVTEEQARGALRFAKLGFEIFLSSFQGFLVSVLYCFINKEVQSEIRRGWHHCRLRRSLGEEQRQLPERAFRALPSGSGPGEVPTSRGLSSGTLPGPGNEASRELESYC


Experiments:
Assay in all cases: cell-based or functional assay
[1] = biological target: human glucagon receptor (human) (UniProt P47871)
Chain of human glucagon receptor (human) (P47871 26-477): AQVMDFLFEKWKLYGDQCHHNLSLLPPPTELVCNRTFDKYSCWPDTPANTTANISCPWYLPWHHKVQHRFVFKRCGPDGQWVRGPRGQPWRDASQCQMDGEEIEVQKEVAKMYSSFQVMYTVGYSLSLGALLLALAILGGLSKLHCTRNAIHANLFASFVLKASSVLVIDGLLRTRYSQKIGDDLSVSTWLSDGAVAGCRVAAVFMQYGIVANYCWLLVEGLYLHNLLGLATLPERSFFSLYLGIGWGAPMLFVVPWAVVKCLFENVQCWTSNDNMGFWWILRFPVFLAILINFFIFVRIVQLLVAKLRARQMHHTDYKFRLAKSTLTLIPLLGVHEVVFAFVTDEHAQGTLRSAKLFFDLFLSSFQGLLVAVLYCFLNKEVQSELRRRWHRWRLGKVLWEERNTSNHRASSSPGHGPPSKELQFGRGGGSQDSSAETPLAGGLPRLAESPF

hGLP-1R = hGLP-1R (Homo sapiens, UniProt P43220)
Chain of hGLP-1R (P43220 24-463): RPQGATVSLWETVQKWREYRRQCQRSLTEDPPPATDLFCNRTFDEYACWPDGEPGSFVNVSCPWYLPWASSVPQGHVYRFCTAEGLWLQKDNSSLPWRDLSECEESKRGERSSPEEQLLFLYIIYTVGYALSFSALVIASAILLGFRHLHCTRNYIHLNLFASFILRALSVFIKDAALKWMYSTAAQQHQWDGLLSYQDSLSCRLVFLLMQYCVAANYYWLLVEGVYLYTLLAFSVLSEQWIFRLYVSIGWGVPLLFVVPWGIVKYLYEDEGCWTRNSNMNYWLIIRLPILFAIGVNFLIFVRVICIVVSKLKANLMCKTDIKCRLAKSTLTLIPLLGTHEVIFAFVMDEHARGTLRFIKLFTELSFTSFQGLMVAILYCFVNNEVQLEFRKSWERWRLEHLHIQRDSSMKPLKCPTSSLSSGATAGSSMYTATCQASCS

[2] = biological target: T1, human GIP receptor (human)

Binder | Relative cAMP EC50 [1] [nM] | cAMP Rel EC50, nM (in the presence of 1% HSA) [1] [nM] | Relative cAMP EC50 (hGLP-1R) [nM] | cAMP Rel EC50, nM (in the presence of 1% HSA) (hGLP-1R) [nM] | Relative cAMP EC50 [2] [nM] | cAMP Rel EC50, nM (in the presence of 1% HSA) [2] [nM] | cAMP Rel EC50 (in the presence of 1% HSA) [1] [nM] | cAMP Rel EC50 (in the presence of 1% HSA) (hGLP-1R) [nM] | cAMP Rel EC50 (in the presence of 1% HSA) [2] [nM]
YXQGTFTSDFSKXLDKKAQXAFIEYLLEGGPSSGEPPPGEGX (synthetic construct; SITE 2: note = 2-Aminoisobutyric Acid; SITE 13: note = alpha-methyl-leucine; SITE 17: note = Lysine is chemically modified through conjugation of the epsilon-amino group of the Lysine side chain with (2-[2-(2-Amino-ethoxy)-ethoxy]-acetyl)-(gamma-Glu)-CO-(CH2) 18-CO2H; SITE 20: n) [Example 54] | 3.77 | 1940 | 3.95 | 1300 | 0.502 | 168 | – | – | –
YXQGTXTSDXXIXLDXKAQXXFIEXLTEGGPSSGEPPPEGTEE (acylated Lys (γGlu)2-C18 diacid; non-natural residues; C-terminal amide; synthetic construct; SITE 2: note = 2-Aminoisobutyric Acid; SITE 6: note = alpha-methyl-2-fluoro-L-phenylalanine; SITE 10: note = 3-(4-Pyridyl)-L-alanine; SITE 11: note = alpha-methyl-L-serine; SITE 13: note = alpha-methyl-leucine; SITE 16: note = L-ornithine; SITE 17: note = Lysine is chemically mo) [Example 597] | 5.2 | – | 0.6 | – | 0.0643 | – | 329 | 36.4 | 2.38
YXQGTXTSDXXIXLDXKAQXXFIEXLTEGGPSSGEPPPEGTEEE (acylated Lys (γGlu)2-C18 diacid; non-natural residues; C-terminal amide; synthetic construct; SITE 2: note = 2-Aminoisobutyric Acid; SITE 6: note = alpha-methyl-2-fluoro-L-phenylalanine; SITE 10: note = 3-(4-Pyridyl)-L-alanine; SITE 11: note = alpha-methyl-L-serine; SITE 13: note = alpha-methyl-leucine; SITE 16: note = L-ornithine; SITE 17: note = Lysine is chemically mo) [Example 598] | 8.79 | – | 0.886 | – | 0.0927 | – | 457 | 47.3 | 3.49
YXQGTFTSDFSKXLDKKAQXAFIEYLLEGGPSSGAPPPSEGX (synthetic construct; SITE 2: note = 2-Aminoisobutyric Acid; SITE 13: note = alpha-methyl-leucine; SITE 17: note = Lysine is chemically modified through conjugation of the epsilon-amino group of the Lysine side chain with (2-[2-(2-Amino-ethoxy)-ethoxy]-acetyl)-(gamma-Glu)-CO-(CH2) 16-CO2H; SITE 20: n) [Example 56] | 2.8 | 265 | 4.07 | 167 | 0.315 | 30.3 | – | – | –
YXQGTXTSDXXILLDXKAQXXFIEYLIEGGPSSGEPPPEGSEE (non-natural residues; lysine acylated with C18 diacid; C-terminal amide; synthetic construct; SITE 2: note = 2-Aminoisobutyric Acid; SITE 6: note = alpha-methyl-2-fluoro-L-phenylalanine; SITE 10: note = 3-(4-Pyridyl)-L-alanine; SITE 11: note = alpha-methyl-L-serine; SITE 16: note = L-ornithine; SITE 17: note = Lysine is chemically modified through conjugation of the epsi) [Example 603] | 5.43 | – | 0.688 | – | 0.102 | – | 419 | 49.5 | 4.99
YXQGTXTSDXXILLDXKAQXXFIEYLIEGGPSSGEPPPEGAEE (non-natural residues, (γGlu)2-C18 diacid lysine acylation, C-terminal amide; synthetic construct; SITE 2: note = 2-Aminoisobutyric Acid; SITE 6: note = alpha-methyl-2-fluoro-L-phenylalanine; SITE 10: note = 3-(4-Pyridyl)-L-alanine; SITE 11: note = alpha-methyl-L-serine; SITE 16: note = L-ornithine; SITE 17: note = Lysine is chemically modified through conjugation of the epsi) [Example 604] | 5.5 | – | 0.705 | – | 0.161 | – | 427 | 51 | 4.84
YXQGTXTSDXXILLDXKAQXXFIEYLIEGGPSSGEPPPEGGEE (non-natural residues, acylated Lys ((γGlu)2-C18 diacid), C-terminal amide; synthetic construct; SITE 2: note = 2-Aminoisobutyric Acid; SITE 6: note = alpha-methyl-2-fluoro-L-phenylalanine; SITE 10: note = 3-(4-Pyridyl)-L-alanine; SITE 11: note = alpha-methyl-L-serine; SITE 16: note = L-ornithine; SITE 17: note = Lysine is chemically modified through conjugation of the epsi) [Example 605] | 5.49 | – | 0.795 | – | 0.132 | – | 353 | 56.2 | 6.69
YXQGTXTSDXXILLDXKAQXXFIEYLIEGGPSSGEPPPEGEEE (non-natural residues; C18 diacid-(γGlu)2 on Lys; C-terminal amide; synthetic construct; SITE 2: note = 2-Aminoisobutyric Acid; SITE 6: note = alpha-methyl-2-fluoro-L-phenylalanine; SITE 10: note = 3-(4-Pyridyl)-L-alanine; SITE 11: note = alpha-methyl-L-serine; SITE 16: note = L-ornithine; SITE 17: note = Lysine is chemically modified through conjugation of the epsi) [Example 606] | 5.01 | – | 0.786 | – | 0.17 | – | 474 | 53.1 | 5.69
YXQGTXTSDXSILLDKKAQXAFIEYLEEGGPSSGEPPPSGTGE (Aib, αMeF(2F), 4Pal; acylated K; C-terminal amide; synthetic construct; SITE 2: note = 2-Aminoisobutyric Acid; SITE 6: note = alpha-methyl-2-fluoro-L-phenylalanine; SITE 10: note = 3-(4-Pyridyl)-L-alanine; SITE 17: note = Lysine is chemically modified through conjugation of the epsilon-amino group of the Lysine side chain with (gamma-Glu)2-CO-(CH2)1) [Example 607] | 8.91 | – | 1.15 | – | 0.0879 | – | 565 | 139 | 6.63
YXQGTXTSDXSILLDKKAQXAFIEYLEEGGPSSGEPPPSGTEE (acylated Lys, C-terminal amide, non-natural residues; synthetic construct; SITE 2: note = 2-Aminoisobutyric Acid; SITE 6: note = alpha-methyl-2-fluoro-L-phenylalanine; SITE 10: note = 3-(4-Pyridyl)-L-alanine; SITE 17: note = Lysine is chemically modified through conjugation of the epsilon-amino group of the Lysine side chain with (gamma-Glu)2-CO-(CH2)1) [Example 608] | 7.82 | – | 1.87 | – | 0.124 | – | 669 | 201 | 8.51
YXQGTXTSDXSILLDKKAQXAFIEYLEEGGPSSGAPPPSGTEE (acylated Lys (γGlu)2-C18 diacid; non-natural residues; C-terminal amide; synthetic construct; SITE 2: note = 2-Aminoisobutyric Acid; SITE 6: note = alpha-methyl-2-fluoro-L-phenylalanine; SITE 10: note = 3-(4-Pyridyl)-L-alanine; SITE 17: note = Lysine is chemically modified through conjugation of the epsilon-amino group of the Lysine side chain with (gamma-Glu)2-CO-(CH2)1) [Example 609] | 6.46 | – | 1.07 | – | 0.0784 | – | 647 | 121 | 6.19
YXQGTXTSDXSILLDKKAQXAFIEYLEEGGPSSGAPPPSGSEE (acylated Lys (γGlu)2-C18 diacid; non-natural residues; C-terminal amide; synthetic construct; SITE 2: note = 2-Aminoisobutyric Acid; SITE 6: note = alpha-methyl-2-fluoro-L-phenylalanine; SITE 10: note = 3-(4-Pyridyl)-L-alanine; SITE 17: note = Lysine is chemically modified through conjugation of the epsilon-amino group of the Lysine side chain with (gamma-Glu)2-CO-(CH2)1) [Example 610] | 5.75 | – | 1.66 | – | 0.133 | – | 536 | 130 | 7.02
YXQGTXTSDXSILLDKKAQXAFIEYLEEGGPSSGAPPPSGEEE (non-natural residues (Aib, αMeF(2F), 4Pal); lipidated Lys; C-amide; synthetic construct; SITE 2: note = 2-Aminoisobutyric Acid; SITE 6: note = alpha-methyl-2-fluoro-L-phenylalanine; SITE 10: note = 3-(4-Pyridyl)-L-alanine; SITE 17: note = Lysine is chemically modified through conjugation of the epsilon-amino group of the Lysine side chain with (gamma-Glu)2-CO-(CH2)1) [Example 611] | 6.8 | – | 1.63 | – | 0.126 | – | 627 | 146 | 7.35
